Assay results as given in patent publication US20200024330A1.

Assays:
[1] = biological target: HIV-1 CMU02 envelope glycoprotein (Env) on pseudovirus (HIV-1); assay: cell-based or functional assay
[2] = biological target: HIV-1 JRCSF envelope glycoprotein (Env) on pseudovirus (HIV-1) (UniProt P20871); assay: cell-based or functional assay
[3] = biological target: HIV-1 JRFL envelope glycoprotein (Env) on pseudovirus (HIV-1); assay: cell-based or functional assay
[4] = biological target: HIV-1 NL43 envelope glycoprotein (Env) on pseudovirus (HIV-1); assay: cell-based or functional assay
[5] = biological target: HIV-1 92UG024 envelope glycoprotein (Env) on pseudovirus (HIV-1); assay: cell-based or functional assay
[6] = biological target: HIV-1 MGRM-C-028 envelope glycoprotein (Env) on pseudovirus (HIV-1); assay: cell-based or functional assay
[7] = biological target: HIV-1 93UG077 envelope glycoprotein (Env) on pseudovirus (HIV-1); assay: cell-based or functional assay
[8] = biological target: HIV-1 APV17 envelope glycoprotein (Env) on pseudovirus (HIV-1); assay: cell-based or functional assay
[9] = biological target: HIV-1 MGRM-A-010 envelope glycoprotein (Env) on pseudovirus (HIV-1); assay: cell-based or functional assay
[10] = biological target: HIV-1 MGRM-D-001 envelope glycoprotein (Env) on pseudovirus (HIV-1); assay: cell-based or functional assay
[11] = biological target: HIV-1 92TH021 envelope glycoprotein (Env) on pseudovirus (HIV-1); assay: cell-based or functional assay
[12] = biological target: aMLV envelope protein on pseudovirus (negative control virus); assay: cell-based or functional assay
[13] = biological target: HIV-1 92UG005 envelope glycoprotein (Env) on pseudovirus (HIV-1); assay: cell-based or functional assay
[14] = biological target: HIV-1 93IN905 envelope glycoprotein (Env) on pseudovirus (HIV-1); assay: cell-based or functional assay
[15] = biological target: HIV-1 MGRM-C-026 envelope glycoprotein (Env) on pseudovirus (HIV-1); assay: cell-based or functional assay
[16] = biological target: HIV-1 APV13 envelope glycoprotein (Env) on pseudovirus (HIV-1); assay: cell-based or functional assay
[17] = biological target: HIV-1 APV6 envelope glycoprotein (Env) on pseudovirus (HIV-1); assay: cell-based or functional assay
[18] = biological target: HIV-1 92RW020 envelope glycoprotein (Env) on pseudovirus (HIV-1); assay: cell-based or functional assay
[19] = biological target: HIV-1 92BR020 envelope glycoprotein (Env) on pseudovirus (HIV-1); assay: cell-based or functional assay
[20] = biological target: HIV-1 MGRM-AG-005 envelope glycoprotein (Env) on pseudovirus (HIV-1); assay: cell-based or functional assay
[21] = biological target: HIV-1 MGRM-C-027 envelope glycoprotein (Env) on pseudovirus (HIV-1); assay: cell-based or functional assay
[22] = biological target: HIV-1 MGRM-D-018 envelope glycoprotein (Env) on pseudovirus (HIV-1); assay: cell-based or functional assay
[23] = biological target: HIV-1 94UG103 envelope glycoprotein (Env) on pseudovirus (HIV-1); assay: cell-based or functional assay
[24] = biological target: HIV-1 Env of isolate 93IN905 (HIV-1); assay: cell-based or functional assay
[25] = biological target: Env of the clade D HIV-1 pseudoviruses of the cross-clade 162-pseudovirus panel (n = 25); assay: cell-based or functional assay
[26] = biological target: Env of the clade B HIV-1 pseudoviruses of the cross-clade 162-pseudovirus panel (n = 31); assay: cell-based or functional assay
[27] = biological target: Env of the clade F HIV-1 pseudoviruses of the cross-clade 162-pseudovirus panel (n = 15); assay: cell-based or functional assay
[28] = biological target: Env of the clade A HIV-1 pseudoviruses of the cross-clade 162-pseudovirus panel (n = 26); assay: cell-based or functional assay
[29] = biological target: Env of the clade G HIV-1 pseudoviruses of the cross-clade 162-pseudovirus panel (n = 15); assay: cell-based or functional assay
[30] = biological target: Env of the clade C HIV-1 pseudoviruses of the cross-clade 162-pseudovirus panel (n = 27); assay: cell-based or functional assay
[31] = biological target: HIV-1 Env of isolate MGRM-C-026 (HIV-1); assay: cell-based or functional assay
[32] = biological target: HIV-1 Env of isolate JR-CSF (HIV-1) (UniProt P20871); assay: cell-based or functional assay
[33] = biological target: JR-FL gp120 ΔV1/ΔV2 (HIV-1 (isolate JR-FL)); assay: ELISA on coated gp120; EC50 by nonlinear regression
[34] = biological target: JR-FL gp120 ΔV3 (HIV-1 (isolate JR-FL)); assay: as above
[35] = biological target: WT JR-FL gp120 (HIV-1 (isolate JR-FL)); assay: as above

B1: PGT-136 (5329_C19; 5366_P21) human monoclonal anti-HIV antibody (antibody, V domains shown)
VH: QLQLQESGPGLVKPSETLSLTCTVSGGSMRGTDWGENDFHYGWIRQSSAKGLEWIGSIHWRGRTTHYKTSFRSRATLSIDTSNNRFSLTFSFVTAADTAVYYCARHKYHDIFRVVPVAGWFDPWGQGLLVTVSS
VL: EIVMTQSPPTLSVSPGETATLSCRASQNVKNNLAWYQLKPGQAPRLLIFDASSRAGGIPDRFSGSGYGTDFTLTVNSVQSEDFGDYFCQQYEEWPRTFGQGTKVDIK
- neutralization IC50 [1]: > 10 µg/mL
- neutralization IC80 [1]: > 10 µg/mL
- neutralization IC90 [1]: > 10 µg/mL
- neutralization IC95 [1]: > 10 µg/mL
- neutralization IC50 [2]: > 10 µg/mL
- neutralization IC80 [2]: > 10 µg/mL
- neutralization IC90 [2]: > 10 µg/mL
- neutralization IC95 [2]: > 10 µg/mL
- neutralization IC50 [3]: > 10 µg/mL
- neutralization IC80 [3]: > 10 µg/mL
- neutralization IC90 [3]: > 10 µg/mL
- neutralization IC95 [3]: > 10 µg/mL
- neutralization IC50 [4]: > 10 µg/mL
- neutralization IC80 [4]: > 10 µg/mL
- neutralization IC90 [4]: > 10 µg/mL
- neutralization IC95 [4]: > 10 µg/mL
- neutralization IC50 [5]: 0.0915 µg/mL
- neutralization IC80 [5]: 0.619 µg/mL
- neutralization IC90 [5]: 1.96 µg/mL
- neutralization IC95 [5]: 5.97 µg/mL
- neutralization IC50 [6]: > 10 µg/mL
- neutralization IC80 [6]: > 10 µg/mL
- neutralization IC90 [6]: > 10 µg/mL
- neutralization IC95 [6]: > 10 µg/mL
- neutralization IC50 [7]: > 10 µg/mL
- neutralization IC80 [7]: > 10 µg/mL
- neutralization IC90 [7]: > 10 µg/mL
- neutralization IC95 [7]: > 10 µg/mL
- neutralization IC50 [8]: > 10 µg/mL
- neutralization IC80 [8]: > 10 µg/mL
- neutralization IC90 [8]: > 10 µg/mL
- neutralization IC95 [8]: > 10 µg/mL
- neutralization IC50 [9]: > 10 µg/mL
- neutralization IC80 [9]: > 10 µg/mL
- neutralization IC90 [9]: > 10 µg/mL
- neutralization IC95 [9]: > 10 µg/mL
- neutralization IC50 [10]: > 10 µg/mL
- neutralization IC80 [10]: > 10 µg/mL
- neutralization IC90 [10]: > 10 µg/mL
- neutralization IC95 [10]: > 10 µg/mL
- neutralization IC50 [11]: > 10 µg/mL
- neutralization IC80 [11]: > 10 µg/mL
- neutralization IC90 [11]: > 10 µg/mL
- neutralization IC95 [11]: > 10 µg/mL
- neutralization IC50 [12]: > 10 µg/mL
- neutralization IC80 [12]: > 10 µg/mL
- neutralization IC90 [12]: > 10 µg/mL
- neutralization IC95 [12]: > 10 µg/mL
- neutralization IC50 [13]: > 10 µg/mL
- neutralization IC80 [13]: > 10 µg/mL
- neutralization IC90 [13]: > 10 µg/mL
- neutralization IC95 [13]: > 10 µg/mL
- neutralization IC50 [14]: 0.0135 µg/mL
- neutralization IC80 [14]: 0.0623 µg/mL
- neutralization IC90 [14]: 0.156 µg/mL
- neutralization IC95 [14]: 0.379 µg/mL
- neutralization IC50 [15]: 0.0065 µg/mL
- neutralization IC80 [15]: 0.0285 µg/mL
- neutralization IC90 [15]: 0.0687 µg/mL
- neutralization IC95 [15]: 0.159 µg/mL
- neutralization IC50 [16]: > 10 µg/mL
- neutralization IC80 [16]: > 10 µg/mL
- neutralization IC90 [16]: > 10 µg/mL
- neutralization IC95 [16]: > 10 µg/mL
- neutralization IC50 [17]: > 10 µg/mL
- neutralization IC80 [17]: > 10 µg/mL
- neutralization IC90 [17]: > 10 µg/mL
- neutralization IC95 [17]: > 10 µg/mL
- neutralization IC50 [18]: 0.738 µg/mL
- neutralization IC80 [18]: > 10 µg/mL
- neutralization IC90 [18]: > 10 µg/mL
- neutralization IC95 [18]: > 10 µg/mL
- neutralization IC50 [19]: > 10 µg/mL
- neutralization IC80 [19]: > 10 µg/mL
- neutralization IC90 [19]: > 10 µg/mL
- neutralization IC95 [19]: > 10 µg/mL
- neutralization IC50 [20]: > 10 µg/mL
- neutralization IC80 [20]: > 10 µg/mL
- neutralization IC90 [20]: > 10 µg/mL
- neutralization IC95 [20]: > 10 µg/mL
- neutralization IC50 [21]: > 10 µg/mL
- neutralization IC80 [21]: > 10 µg/mL
- neutralization IC90 [21]: > 10 µg/mL
- neutralization IC95 [21]: > 10 µg/mL
- neutralization IC50 [22]: > 10 µg/mL
- neutralization IC80 [22]: > 10 µg/mL
- neutralization IC90 [22]: > 10 µg/mL
- neutralization IC95 [22]: > 10 µg/mL
- neutralization IC50 [23]: > 10 µg/mL
- neutralization IC80 [23]: > 10 µg/mL
- neutralization IC90 [23]: > 10 µg/mL
- neutralization IC95 [23]: > 10 µg/mL

B2: PGT-137 (antibody, V domains shown)
VH: EVHLEESGPGLVRPSETLSLTCTASGGSIRGGEWGDSDYHWGWVRHSPEKGLEWIGSIHWRGTTHYNAPFRGRGRLSIDLSRNQFSLRLTSVTAEDTAVYYCVKHKYHDIVMVVPIAGWFDPWGQGLQVTVSS
VL: EIMMTQSPAILSVSPGDRATLSCRASQSVKNNLAWYQKRPGQAPRLLIFDTSSRASGIPARFSGGGSGTEFTLTVNSMQSEDFATYYCQQYEEWPRTFGQGTKVEIK
- Primary Neutralization Index (B cell culture well 5345 I1) [24]: 3.3
- Median IC50 against viruses neutralized with an IC50 <50 µg/ml [25]: 6.3 µg/mL
- Median IC50 against viruses neutralized with an IC50 <50 µg/ml [26]: 8.55 µg/mL
- Median IC50 against viruses neutralized with an IC50 <50 µg/ml [27]: 6.23 µg/mL
- Median IC50 against viruses neutralized with an IC50 <50 µg/ml [28]: 0.72 µg/mL
- Median IC50 against viruses neutralized with an IC50 <50 µg/ml [29]: 0.23 µg/mL
- Median IC50 against viruses neutralized with an IC50 <50 µg/ml [30]: 0.23 µg/mL
- Primary Neutralization Index (B cell culture well 5345 I1) [31]: 11.3
- Primary Neutralization Index (B cell culture well 5345 I1) [32]: 1.1
- EC50 [33]: 0.2 µg/mL
- EC50 [34]: 0.1 µg/mL
- EC50 [35]: 0.1 µg/mL
